In data set [1] the target is T1, MAO B (Homo sapiens, UniProt P27338).
T1 construct: expressed in transfected cells; host or cells: COS-7 (African green monkey), riboflavin-containing (Rib+) or riboflavin-depleted (Rib-), transient electroporation
T1 sequence (P27338 1-520): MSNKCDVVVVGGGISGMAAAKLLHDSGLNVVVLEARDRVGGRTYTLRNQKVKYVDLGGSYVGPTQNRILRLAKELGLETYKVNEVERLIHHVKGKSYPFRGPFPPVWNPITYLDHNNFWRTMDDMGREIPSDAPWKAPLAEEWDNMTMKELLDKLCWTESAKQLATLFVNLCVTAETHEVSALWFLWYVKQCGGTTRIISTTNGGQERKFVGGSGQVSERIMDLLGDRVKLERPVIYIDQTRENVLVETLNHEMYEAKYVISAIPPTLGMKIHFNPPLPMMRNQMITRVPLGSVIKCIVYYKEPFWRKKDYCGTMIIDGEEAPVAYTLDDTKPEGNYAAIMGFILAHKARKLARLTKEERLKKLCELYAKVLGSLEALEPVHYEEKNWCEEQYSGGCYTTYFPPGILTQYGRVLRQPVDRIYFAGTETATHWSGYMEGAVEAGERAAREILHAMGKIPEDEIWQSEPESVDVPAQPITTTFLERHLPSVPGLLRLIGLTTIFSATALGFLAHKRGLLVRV
Description: MAO B enzymatic activity in COS-7 cells during riboflavin depletion. It counts as cell-based. On the procedure:
Mammalian COS-7 cells were grown in Dulbecco's Modified Eagle Medium (DMEM, Gibco) supplemented with 10% fetal bovine serum (FBS, Gibco) at 37° C. with 5% CO2. Since this medium (DMEM+10% FBS) contains riboflavin, COS-7 cells grown in this medium were defined as riboflavin-containing COS-7 cells (Rib^+ COS-7 cells). MAO B holoenzyme was obtained by expressing MAO B cDNA in Rib^+ COS-7 cells. Mammalian COS-7 cells were also grown in riboflavin-free medium (riboflavin-free DMEM+10% dialyzed FBS, Gibco) at 37° C. with 5% CO2, with fresh riboflavin-free medium changed every 48-72 hours. COS-7 cells grown in riboflavin-free medium for longer than 100 days were defined as riboflavin-depleted (Rib^-) COS-7 cells. Apo-MAO B was obtained by expressing MAO B cDNA in Rib^- COS-7 cells. COS-7 cells were grown in riboflavin-free medium for greater than 5 months without any detectable change in morphology.
Wild-type or mutant MAO B cDNAs were transiently transfected into COS-7 cells by electroporation (23) as previously described (18). […]
MAO B activity was assayed radiometrically by a modification of the method of Wurtman and Axelrod (26) as described previously (18). […] The reaction product was extracted with 500 μl of toluene, and an aliquot (200 μl) of the organic phase from each sample was counted in liquid scintillation fluid (Bio-Safe) in a Beckman LB 3801 scintillation counter. […]

The target in data set [2] is T1, MAO B. Description: Quantitation of expressed MAO B protein by ELISA in transfected COS-7 cells. The data set is classed as cell-based. Further details: MAO B Expressed: unit not given here. On the procedure: (§1) Total protein concentrations of samples containing MAO B holoenzyme, apoenzyme, or variant MAO Bs were determined by a MicroBCA kit (Pierce). All samples were then adjusted to equal protein concentrations and assayed for MAO B protein by ELISA using a modification of the method of Yeomanson and Billett (25) as described previously (18).
MAO B cDNA was expressed sequentially at different time intervals in these cells during this riboflavin depletion process (FIG. 2). Each data point in FIG. 2 represents an individual expression assay. For each assay, a sample of COS-7 cells grown in riboflavin-free medium were transfected with MAO B cDNA via electroporation. Concurrently, Rib^+ COS-7 cells were transfected with MAO B cDNA to serve as a control. Following incubation for 48 hours, the cells were homogenized and assays were performed to determine protein concentration, MAO B concentration by ELISA using polyclonal antibodies, and MAO B activity using [^14 C] benzylamine.
An equal amount of MAO B cDNA (15 μg) was expressed in both types of […]
Background: An ELISA detects its analyte on a solid surface through an enzyme-linked reagent.

The target in data set [3] is T1, MAO B. Description: FAD coupling in vitro (flavinylation assay in cell lysate, 30° C.). The following applies: up to 3 hours at 30° C. The data set is classed as biochemical. On the procedure:
(- - - x - - - ). […] The enzymatic activity of each sample was determined at 1 hour time intervals using [^14 C] benzylamine as substrate.
Apo-MAO B was obtained by expressing MAO B cDNA in Rib^- COS-7 cells. The cells were then harvested and homogenized as described above. One half of the lysate was stirred in the presence of 0.25% Triton X-100 at 4° C. for 50 min. to extract apo-MAO B from the outer mitochondrial membrane. The second half of the lysate was not extracted with Triton X-100 to permit MAO B to remain in the membrane. […] Assays were also carried out in the presence of an energy mixture (10 mM ATP, 32 mM PEP and 2.4 μg pyruvate kinase) and 25% glycerol in the reaction vials. Each sample was run in triplicate. After 1, 2 or 3 hours incubation at 30° C., each sample was assayed for MAO B activity as described below.
(§2) MAO B activity was assayed radiometrically by a modification of the method of Wurtman and Axelrod (26) as described previously (18). Briefly, the reaction mixture contained 200 μl of 50 mM sodium phosphate buffer (pH 7.4), 3.6 nmole of 55 mCi/mmol [^14 C] benzylamine hydrochloride (Amersham), 10 nmoles of unlabeled benzylamine and 10 μl of cell lysate. Samples were run in triplicate, and one out of each set was denatured with […] of 6N HCl prior to the addition of substrate to serve as an internal control. All reactions were incubated for 9 minutes at 37° C., and terminated by the addition of 25 μl of 6N HCl. The reaction product was extracted with 500 μl of toluene, and an aliquot (200 μl) of the organic phase from each sample was counted in liquid scintillation fluid (Bio-Safe) in a Beckman LB 3801 scintillation counter.

Data set [4] deals with T1, MAO B. Kind of data set: Subcellular fractionation of transfected Rib^+ and Rib^- COS-7 cells: distribution of MAO B and activity. The data set is classed as cell-based. The settings on record: for Fraction activity: Rib^+ COS-7. As for the experimental part:
COS-7 subcellular fractionation was carried out with a modified method of Clark and Waterman (24). Transfected Rib^+ - or Rib^- COS-7 cells were harvested, washed twice with ice-cold PBS, and pelleted by microcentrifugation at 500×g for 5 minutes. The cells were then homogenized in a Dounce homogenizer. Greater than 95% of the cells were lysed, as determined by trypan blue staining. The homogenate was diluted with an equal volume of 10 mM Tris-HCl, 1 mM EDTA, pH 8.0, to obtain a 0.25M final sucrose concentration and layered over 0.5 volume of 0.5M sucrose pad (0.5M sucrose in 10 mM Tris-HCl, 1 mM EDTA, pH 8.0). The solution was centrifuged at 5,000 rpm for 3 minutes using a swinging bucket rotor (TLS.55, Beckman TL-100) to remove cell debris and nuclei (P1 fraction). The supernatant plus the interface of the 0.5M sucrose pad was again layered over another 0.5M sucrose pad, and centrifuged as above at 17,000 rpm for 20 minutes to isolate mitochondria (P2 fraction). The resulting supernatant was centrifuged at 70,000 rpm (TL100.3, Beckman TL-100) for 30 minutes to sediment microsomes (P3 fraction). The final supernatant was the cytosol (S). After subcellular fractionation, P1, P2 and P3 were resuspended in 20 mM Tris-HCl, 1 mM EDTA, 0.5 mM PMSF, 150 mM NaCl, pH 8.0. All samples were treated with Triton X-100 to extract MAO B, and then protein concentrations, MAO B concentrations and enzymatic activities were determined.
as §1, §2
Transfected Rib^+ or Rib^- COS7 cells (1.2 × 10^7

Data set [5] addresses T1, MAO B. Kind of data set: FAD coupling in intact cells: MAO B enzymatic activity after electroporation of MAO B cDNA with cofactor into Rib^- COS-7 cells ([^14 C] benzylamine substrate). It counts as cell-based. Further details: Percent of Holo-MAO B Activity: concentration or dose not given beside the values. On the procedure: Wild-type or mutant MAO B cDNAs were transiently transfected into COS-7 cells by electroporation (23) as previously described (18). Briefly, Rib^+ - or Rib^- COS-7 cells were harvested during late log phase growth and resuspended to a concentration of 3.1×10^6 cells/ml in either riboflavin-containing or riboflavin-free medium, respectively. Wild-type or mutant MAO B cDNAs ([…]) were added to 0.8 ml of cell suspension. […] Electroporation was carried out in a Bio-Rad Gene Pulser with a setting of 250 V and 500 μF. Cells were resuspended in 15 ml of riboflavin-containing or riboflavin-free medium and incubated at 37° C. with 5% CO2. Transfected COS-7 cells were harvested at 48 hours and homogenized in a lysis solution containing 20 mM Tris-HCl, 1 mM EDTA, 0.5 mM PMSF, pH 8.0. The homogenate was diluted with an equal volume of the same buffer supplemented with 300 mM NaCl to obtain a 150 mM final NaCl concentration. Triton X-100 (Pierce) was added to the lysate to give a final concentration of 0.25%, and the samples were allowed to stir for 50 min. at 4° C. to extract MAO B from the outer mitochondrial membrane. After Triton extraction, the lysate was centrifuged at 1300×g for 5 min. at 4° C. to remove insoluble cell debris.
as §2
FMN or riboflavin were also capable of restoring approximately 75% of MAO B holoenzyme activity. However, only 40% of MAO B holoenzyme activity was obtained by the addition of 8α-hydroxyriboflavin.
Various cofactors were added with MAO B cDNA into Rib^- COS7 cells

Setting [6] is: COS-7 cells grown in riboflavin-free medium for 76 days.
Where [7] appears, read: Mitochondria (P2), listed as holo-MAO B.
The mark [8] stands for this setting: cofactor added with MAO B cDNA into Rib^- COS-7 cells, 48 hours, mean ± SE, three experiments.

As for monoamine oxidase B [MAO B], the “MAO B activity, % of MAO B holoenzyme activity in Rib^+ COS-7 cells” value in data set [1] (100 days in riboflavin-free medium) is on record as “less than 5%”. In addition, the “MAO B activity” value in data set [1] (after 116 days in riboflavin-free medium) is on record as “nearly undetectable”. In data set [2] (setting [6]), the Expression came out at 0.90 μg MAO B/mg prot and the “[MAO B]” value is 3.70 µg/mL. Besides, in data set [2] (Rib^+ COS-7), the Expression is recorded as 0.86 μg MAO B/mg prot and the “[MAO B]” value came to 3.50 µg/mL. Also, the “MAO B expression level” value in data set [2] (during riboflavin depletion, regardless of time in riboflavin-free medium) was determined as 0.95±0.04 μg/mg protein.

B1: Holo-MAO B: obtained by expressing MAO B cDNA in Rib^+ COS-7 cells, which served as a positive control (protein, UniProt P27338 2-520, looked up)
Amine oxidase …: SNKCDVVVVGGGISGMAAAKLLHDSGLNVVVLEARDRVGGRTYTLRNQKVKYVDLGGSYVGPTQNRILRLAKELGLETYKVNEVERLIHHVKGKSYPFRGPFPPVWNPITYLDHNNFWRTMDDMGREIPSDAPWKAPLAEEWDNMTMKELLDKLCWTESAKQLATLFVNLCVTAETHEVSALWFLWYVKQCGGTTRIISTTNGGQERKFVGGSGQVSERIMDLLGDRVKLERPVIYIDQTRENVLVETLNHEMYEAKYVISAIPPTLGMKIHFNPPLPMMRNQMITRVPLGSVIKCIVYYKEPFWRKKDYCGTMIIDGEEAPVAYTLDDTKPEGNYAAIMGFILAHKARKLARLTKEERLKKLCELYAKVLGSLEALEPVHYEEKNWCEEQYSGGCYTTYFPPGILTQYGRVLRQPVDRIYFAGTETATHWSGYMEGAVEAGERAAREILHAMGKIPEDEIWQSEPESVDVPAQPITTTFLERHLPSVPGLLRLIGLTTIFSATALGFLAHKRGLLVRV
modifications: FAD holoenzyme
notes: obtained by expressing MAO B cDNA in Rib^+ COS-7 cells, which served as a positive control
Regarding B1, the “stability of enzymatic activity in cell lysate” value in data set [3] is given as “remained fully active”. Also, the “Fraction activity, percentage of total” value in data set [4] (Cell debris (P1)) is given as 4.5%; in data set [4] (Cytosol (S)), 3.7%; in data set [4] (Microsome (P3)) it was 8.6%; in data set [4] (Mitochondria (P2)) it was 83.3%; in data set [4] (setting [7]), “Approximately 80%”. The “MAO B amount” value in data set [4] (Cell debris (P1)) is on record as 58 ng; in data set [4] (Cytosol (S)), 45 ng; in data set [4] (Microsome (P3)), 96 ng; in data set [4] (Mitochondria (P2)) it was 760 ng. For the same molecule, the “MAO B, percentage of total amount” value in data set [4] (Cell debris (P1)) is listed as 6.1%; in data set [4] (Cytosol (S)) it was 4.7%; in data set [4] (Microsome (P3)) it was 10%; in data set [4] (Mitochondria (P2)) it was 79.3%; in data set [4] (setting [7]) it was “Approximately 80%”. Moreover, the Fraction activity is listed as 0.6 10^-4 mmol/minute in data set [4] (Cell debris (P1)), 0.48 10^-4 mmol/minute in data set [4] (Cytosol (S)), 1.11 10^-4 mmol/minute in data set [4] (Microsome (P3)) and 10.8 10^-4 mmol/minute in data set [4] (Mitochondria (P2)). The “MAO B Expressed” value in data set [2] (setting [8]) was found to be 1.05 ± 0.25. Further, the “Enzymatic Activity” value in data set [5] (setting [8]) is recorded as 1.13 ± 0.14 μmol benzylamine/minute/mg MAO. Besides, the “Percent of Holo-MAO B Activity” value in data set [5] (relative to holo-MAO B expressed in Rib^+ COS-7 cells) turned out to be 100%.

These data come from US5863776A, “Method of preparing apoenzyme” (Research Development Foundation, priority 1996, dated 1999).
